According to the Immune Epitope Database (IEDB):

Experiments:
[1] = target: HLA-A*29:02; assay: IEDB peptide-MHC binding, purified MHC/competitive/fluorescence; filed as Kd, often an IC50 or EC50 that approximates it; ≥ and ≤ were set here for values at or beyond the usual limits of such assays; details: source organism: Vibrio vulnificus CMCP6
[2] = target: HLA-B*39:01; assay: as above
[3] = target: HLA-B*15:01; assay: as above
[4] = target: HLA-B*18:01; assay: as above
[5] = target: HLA-A*02:12; assay: as above; details: source organism: Vibrio vulnificus CMCP6
[6] = target: HLA-A*03:01; assay: as above; details: source organism: Vibrio vulnificus CMCP6
[7] = target: HLA-B*57:01; assay: as above
[8] = target: HLA-A*24:03; assay: as above; details: source organism: Vibrio vulnificus CMCP6
[9] = target: HLA-B*51:01; assay: as above
[10] = target: HLA-A*02:01; assay: as above
[11] = target: HLA-B*27:03; assay: as above
[12] = target: HLA-B*46:01; assay: as above
[13] = target: HLA-A*23:01; assay: as above; details: source organism: Vibrio vulnificus CMCP6
[14] = target: HLA-A*26:01; assay: as above
[15] = target: HLA-A*02:19; assay: as above; details: source organism: Vibrio vulnificus CMCP6
[16] = target: HLA-A*02:11; assay: as above; details: source organism: Vibrio vulnificus CMCP6
[17] = target: HLA-A*02:03; assay: as above; details: source organism: Vibrio vulnificus CMCP6
[18] = target: HLA-A*69:01; assay: as above
[19] = target: HLA-B*58:01; assay: as above
[20] = target: HLA-A*68:02; assay: IEDB peptide-MHC binding, purified MHC/direct/fluorescence; filed as Kd, often an IC50 or EC50 that approximates it; ≥ and ≤ were set here for values at or beyond the usual limits of such assays
[21] = target: HLA-A*02:12; assay: as above
[22] = target: HLA-A*03:01; assay: as above
[23] = target: HLA-A*24:03; assay: as above
[24] = target: HLA-A*01:01; assay: as above; details: source organism: Sudan ebolavirus - Maleo (1979)
[25] = target: HLA-A*02:16; assay: as above
[26] = target: HLA-A*26:01; assay: as above
[27] = target: HLA-A*02:19; assay: as above
[28] = target: HLA-A*02:11; assay: as above
[29] = target: HLA-A*02:03; assay: as above
[30] = target: HLA-B*15:17; assay: IEDB peptide-MHC binding, purified MHC/competitive/fluorescence; filed as Kd, often an IC50 or EC50 that approximates it; ≥ and ≤ were set here for values at or beyond the usual limits of such assays; details: source organism: Reston ebolavirus
[31] = target: HLA-A*29:02; assay: IEDB peptide-MHC binding, purified MHC/direct/fluorescence; filed as Kd, often an IC50 or EC50 that approximates it; ≥ and ≤ were set here for values at or beyond the usual limits of such assays; details: source organism: Reston ebolavirus
[32] = target: HLA-B*07:02; assay: as above; details: source organism: Tai Forest virus - Cote d'Ivoire, Cote d'Ivoire, 1994
[33] = target: HLA-A*23:01; assay: as above; details: source organism: Reston ebolavirus
[34] = target: HLA-B*35:01; assay: IEDB peptide-MHC binding, purified MHC/competitive/fluorescence; filed as Kd, often an IC50 or EC50 that approximates it; ≥ and ≤ were set here for values at or beyond the usual limits of such assays
[35] = target: HLA-C*15:02; assay: IEDB peptide-MHC binding, purified MHC/direct/fluorescence; filed as Kd, often an IC50 or EC50 that approximates it; ≥ and ≤ were set here for values at or beyond the usual limits of such assays; details: source organism: Mycobacterium tuberculosis H37Rv
[36] = target: HLA-C*14:02; assay: as above; details: source organism: Mycobacterium tuberculosis H37Rv
[37] = source organism: Vibrio vulnificus CMCP6
[38] = source organism: Zaire ebolavirus
[39] = source organism: Ravn virus - Ravn, Kenya, 1987
[40] = source organism: Reston ebolavirus
[41] = source organism: Bacillus anthracis str. A2012
[42] = source organism: Mycobacterium tuberculosis H37Rv

In the case of WLAGFEPSE, the Kd [1] is reported as at least 20 µM, the Kd [2, 37] is reported as at least 20 µM and the Kd [3, 37] is reported as at least 20 µM. For the same sequence, the Kd [4, 37] was at least 20 µM, the Kd [5] was 0.453 µM and the Kd [6] was at least 20 µM. It also gave a Kd [7, 37] of at least 20 µM, a Kd [8] of at least 20 µM and a Kd [9, 37] of at least 20 µM. For the same sequence, the Kd [10, 37] was at least 20 µM, the Kd [11, 37] was at least 20 µM and the Kd [12, 37] was at least 20 µM. It also gave a Kd [13] of at least 20 µM, a Kd [14, 37] of at least 20 µM and a Kd [15] of at least 20 µM. It also gave a Kd [16] of at least 20 µM and a Kd [17] of at least 20 µM.
Work on YSGNIVHRY yielded a Kd [2, 38] of at least 20 µM, a Kd [9, 38] of at least 20 µM and a Kd [10, 38] of at least 20 µM. It also gave a Kd [11, 38] of at least 20 µM, a Kd [12, 38] of at least 20 µM and a Kd [18, 38] of at least 20 µM. It also gave a Kd [19, 38] of 0.0647 µM, a Kd [20, 39] of at least 20 µM and a Kd [21, 39] of at least 20 µM. For the same sequence, the Kd [22, 39] was at least 20 µM, the Kd [23, 39] was at least 20 µM and the Kd [24] was 0.0896 µM. It also gave a Kd [25, 39] of at least 20 µM, a Kd ([26]; source organism: Sudan ebolavirus - Maleo (1979)) of 1.55 µM and a Kd [27, 39] of at least 20 µM. For the same sequence, the Kd [28, 39] was at least 20 µM and the Kd [29, 39] was at least 20 µM.
Work on LPRERFRKT yielded a Kd [2, 40] of at least 20 µM, a Kd [3, 40] of at least 20 µM and a Kd [4, 40] of at least 20 µM. For the same sequence, the Kd [7, 40] was at least 20 µM, the Kd [9, 40] was at least 20 µM and the Kd [30] was at least 20 µM. For the same sequence, the Kd [10, 40] was at least 20 µM, the Kd [11, 40] was at least 20 µM and the Kd [12, 40] was at least 20 µM. For the same sequence, the Kd [18, 40] was at least 20 µM, the Kd [14, 40] was at least 20 µM and the Kd [31] was at least 20 µM. It also gave a Kd [20, 40] of at least 20 µM, a Kd [32] of 0.179 µM and a Kd [21, 40] of at least 20 µM. The Kd [22, 40] was at least 20 µM, the Kd [23, 40] was at least 20 µM and the Kd [25, 40] was at least 20 µM. For the same sequence, the Kd [33] was at least 20 µM, the Kd [27, 40] was at least 20 µM and the Kd [28, 40] was at least 20 µM. For the same sequence, the Kd [29, 40] was at least 20 µM.
Work on FVAAGAFHM yielded a Kd [34, 41] of 0.0037 µM and a Kd [14, 41] of 0.278 µM.
KTNRTGLLM showed a Kd ([19]; source organism: Bacillus cereus G9241) of 0.0913 µM.
Work on YVRTNGASY yielded a Kd [12, 42] of 2.22 µM, a Kd [34, 42] of 0.0646 µM and a Kd ([26]; source organism: Mycobacterium tuberculosis) of 0.026 µM. For the same sequence, the Kd [35] was at least 20 µM and the Kd [36] was 0.353 µM.
